The values that follow come from paper PMC6175910.

Data set [1] deals with Msm RbpA/sigmaA RNAP holoenzyme (wild type) (Mycobacterium smegmatis (strain MGM6029), UniProt A0QSL8;P60281;A0QS66;A0QWT1;A0QW02;A0QZ11 1-350;1-1169;1-1317;1-107;1-466;1-114). Put plainly: X-ray crystallography (3.05 A); Rif soaked in; Footprinting: 10 mM Tris-HCl pH 8, 10 mM K-glutamate, 5 mM MgCl2, 0.1 mM DTT, 15 ug/mL BSA, 37 C, 400 nM RNAP; crystals: 0.1 M Bis-Tris pH 6.0, 0.2 M LiSO4, 16% PEG 3350, 2.5% ethylene glycol, 22 C. Conditions: protein: recombinant; tags: beta' C-terminal ppx-His10; chain copies: 2;1;1;1;1;1; 3' overhang 5 nt on strand 1 (upstream fork), other end blunt.

The target in data set [2] is Msm RbpA/sigmaA RNAP holoenzyme, beta S447L (Mycobacterium smegmatis (strain MGM6029), UniProt A0QSL8;P60281;A0QS66;A0QWT1;A0QW02;A0QZ11 1-350;1-1169;1-1317;1-107;1-466;1-114, S447L). As to the kind of experiment: X-ray crystallography (3.45 A); Kang A soaked in; Footprinting: 10 mM Tris-HCl pH 8, 10 mM K-glutamate, 5 mM MgCl2, 0.1 mM DTT, 15 ug/mL BSA, 37 C, 400 nM RNAP; crystals: 0.1 M Bis-Tris pH 6.0, 0.2 M LiSO4, 16% PEG 3350, 2.5% ethylene glycol, 22 C. Conditions: protein: recombinant; tags: beta' C-terminal ppx-His10; chain copies: 2;1;1;1;1;1.

B1: Usfork_T10 upstream fork promoter DNA (dsDNA)
DNA 1: GCTTGACAAAAGTGTTAAATTGTGCTATACT
DNA 2: AGCACAATTTAACACTTTTGTCAAGC
For the molecule B1, the binding result in data set [1] and in data set [2] was “binds” in each case.
